Earlier results in US9307769B2, “Method for increasing plant yield, and yield improving compositions” (Plant Health Care, Inc., priority 2011, dated 2016).

details: HR-eliciting fragments, Table 1

Row | Substance | pI
1 | HrpNEa-1: HR-eliciting fragment, E. amylovora, amino acid residues 43-70 (GLGGGNQNDTVNQLAGLLTGMMMMMSMM; UniProt Q01099 43-70, looked up, fragment) | 3.09
2 | HrpNEa-2: HR-eliciting fragment, E. amylovora, amino acid residues 140-176 (QNDDSTSGTDSTSDSSDPMQQLLKMFSEIMQSLFGDG; UniProt Q01099 140-176, looked up, fragment) | 3.17
3 | HrpNEch-1: HR-eliciting fragment, E. chrysanthemi, amino acid residues 78-118 (QLGQSFGNGAQGASNLLSVPKSGGDALSKMFDKALDDLLGH; UniProt Q47278 78-118, looked up, fragment) | 5.25
4 | HrpNEch-2: HR-eliciting fragment, E. chrysanthemi, amino acid residues 256-295 (DGWSSPKTDDKSWAKALSKPDDDGMTGASMDKFRQAMGMI; UniProt Q47278 256-295, looked up, fragment) | 4.62
5 | HrpWPss-1: HR-eliciting fragment, P. syringae, amino acid residues 52-96 (LAATMFVMAPVAHDIQQRVHEHPLELSNADKLQSSLKVVIEPLQR; UniProt Q60236 52-96, looked up, fragment) | 4.32

same assay, conditions: building block domains for fusion proteins, Table 2

Row | Substance | pI
6 | (NC): building block domain, source HrpNEa140-180 (QNDDSTSGTDSTSDSSDPMQQLLKMFSEIMQSLFGDGQDGT; UniProt Q01099 140-180, looked up, fragment) | 5.01
7 | (NN): building block domain, source HrpNEa40-80 (SALGLGGGNQNDTVNQLAGLLTGMMMMMSMMGGGGLMGGGL; UniProt Q01099 40-80, looked up, fragment) | 6.78
